The source of these data is paper PMC9317851, “Genomic Characterization of Bacillus safensis Isolated from Mine Tailings in Peru and Evaluation of Its Cyanide-Degrading Enzyme CynD” (Applied and Environmental Microbiology, 2022).

Data set [1] deals with the molecule itself. Put plainly: SEC-MALS; pH 10; 100 mM NaCl, 20 mM CAPS; 100-μL injection of 3.47 mg/mL (89.36 μM) CynD; Superdex 200 increase 10/300 GL; size of the oligomers. A general note: In gel filtration, larger molecules generally elute earlier.
Data set [2] deals with the molecule itself. Kind of data set: SEC-MALS; pH 8; 100 mM NaCl, 20 mM Tris-HCl; 100-μL injection of 3.47 mg/mL (89.36 μM) CynD; Superdex 200 increase 10/300 GL; size of the oligomers.
Data set [3] concerns the molecule itself. Put plainly: SEC-MALS; pH 9; 100 mM NaCl, 20 mM Tris-HCl; 100-μL injection of 3.47 mg/mL (89.36 μM) CynD; Superdex 200 increase 10/300 GL; size of the oligomers.

B1: Cyanide dihydratase CynD from Bacillus safensis PER-URP-08 (CynD_(PER-URP-08)), recombinant with C-terminal 6xHis tag (enzyme, UniProt P0DXY3 1-330, looked up)
chain: MTSIYPKFRAAAVQAAPVYLNLEATVEKSCELIDEAASNGAKLVAFPEAFLPGYPWFAFIGHPEYTRKFYHELYKNAVEIPSLAIQKISEAAKRNETYVCISCSEKDGGSLYLAQLWFNPNGDLIGKHRKMRASVAERLIWGDGSGSMMPVFQTDIGNLGGLMCWEHQVPLDLMAMNAQNEQVHVASWPGYFDDEISSRYYAIATQTFVLMTSSIYTEEMKEMICLTQEQRDYFETFKSGHTCIYGPDGEPISDMVPAETEGIAYAEIDVERVIDYKYYIDPAGHYSNQSLSMNFNQQPTPVVKQLYHQKNEVFTYEDIQYQHGILEEKV
notes: Cyanide dihydratase CynD of Bacillus safensis PER-URP-08, locus EGI07_08135; monomer 38.5 kDa; The forward primer carries the NdeI site CATATG followed by a further atg, so an added N-terminal Met may be present; also called recombinant CynD; EGI07_08135; source: E. coli BL21(DE3)/pLysS, purified (Ni-NTA, size exclusion chromatography); not shown: 6xHis, C-terminal, kept
Turning to B1, the “stoichiometry N” value in data set [1] fell in the range of 3 to 5 mer; in data set [2], 24 to 48 mer; in data set [3], 4 to 6 mer.

A word on the stoichiometry N: it is a count of units in the complex or per binding partner.
